According to PMC11783328:

Legend:
[1] = biological target: 12A12 germline (gl-12A12); test: SPR; conditions: antibody dilution series, colour key 0.98-1000 nM; KD1 fitted by bivalent modeling; parent: ND
3BNC60 mature = test: SPR; conditions: antibody dilution series, colour key 0.98-1000 nM; KD1 fitted by bivalent modeling
[2] = biological target: PGV19 germline (gl-PGV19); test: SPR; conditions: antibody dilution series, colour key 0.98-1000 nM; KD1 fitted by bivalent modeling
[3] = biological target: VRC01 germline (gl-VRC01); test: SPR; conditions: antibody dilution series, colour key 0.98-1000 nM; KD1 fitted by bivalent modeling
[4] = biological target: gl-3BNC60 IgG (inferred germline precursor of 3BNC60); test: SPR; conditions: antibody dilution series, colour key 0.98-1000 nM; KD1 fitted by bivalent modeling; parent: ND
[5] = biological target: BG505 SOSIP.v4.1 GT1.1 trimer (BG505 SOSIP germline trimer 1.1) (HIV-1 (isolate BG505)) (UniProt Q2N0S6); test: SPR; Biacore 3000; His-tagged GT1 and GT1.1 trimers captured in parallel flow cells, IgG injected from 1 μM in two- or four-fold dilutions; association 300 s, dissociation 600 s, 50 uL/min; bivalent model

Chain of gl-3BNC60 IgG (inferred germline precursor of 3BNC60) (antibody) (VH): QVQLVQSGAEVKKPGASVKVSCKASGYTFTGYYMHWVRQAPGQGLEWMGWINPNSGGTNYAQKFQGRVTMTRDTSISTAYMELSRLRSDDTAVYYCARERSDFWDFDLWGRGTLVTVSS
Chain of gl-3BNC60 IgG (inferred germline precursor of 3BNC60) (antibody) (VL): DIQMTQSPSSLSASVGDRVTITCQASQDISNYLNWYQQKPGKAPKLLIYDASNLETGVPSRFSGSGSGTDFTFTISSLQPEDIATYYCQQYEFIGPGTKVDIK

Row | Substance | Kd [1] | Kd (3BNC60 mature) | Kd [2] | Kd [3] | Kd [4] | KD1 (bivalent model) [5]
1 | BG505 SOSIP.v4.1-GT1 trimer (from UniProt Q2N0S6) E275K | 200 nM | < 0.1 nM | 24 nM | 360 nM | 780 nM | –
2 | gl-3BNC60 IgG (inferred germline precursor of 3BNC60) (antibody) | – | – | – | – | – | 780 nM
